Measured values taken from paper PMC6478713, “Structural insight into YcbB-mediated beta-lactam resistance in Escherichia coli” (Nature Communications, 2019).

T1: Escherichia coli PBP1b from residue 58 onward, styrene-maleic acid co-polymer solubilised, fluorescently … (Escherichia coli, UniProt P02919 58-844, Alexa Fluor 647 NHS Ester label (sites not given))
T1 construct: Held in styrene-maleic acid co-polymer particles; Thrombin-cleavable tag; the purification paragraph calls the removed tag N-terminal, the cloning paragraph C-terminal; also called SMA-solubilised PBP1b; not shown: His8, C-terminal, cleaved
T1 sequence: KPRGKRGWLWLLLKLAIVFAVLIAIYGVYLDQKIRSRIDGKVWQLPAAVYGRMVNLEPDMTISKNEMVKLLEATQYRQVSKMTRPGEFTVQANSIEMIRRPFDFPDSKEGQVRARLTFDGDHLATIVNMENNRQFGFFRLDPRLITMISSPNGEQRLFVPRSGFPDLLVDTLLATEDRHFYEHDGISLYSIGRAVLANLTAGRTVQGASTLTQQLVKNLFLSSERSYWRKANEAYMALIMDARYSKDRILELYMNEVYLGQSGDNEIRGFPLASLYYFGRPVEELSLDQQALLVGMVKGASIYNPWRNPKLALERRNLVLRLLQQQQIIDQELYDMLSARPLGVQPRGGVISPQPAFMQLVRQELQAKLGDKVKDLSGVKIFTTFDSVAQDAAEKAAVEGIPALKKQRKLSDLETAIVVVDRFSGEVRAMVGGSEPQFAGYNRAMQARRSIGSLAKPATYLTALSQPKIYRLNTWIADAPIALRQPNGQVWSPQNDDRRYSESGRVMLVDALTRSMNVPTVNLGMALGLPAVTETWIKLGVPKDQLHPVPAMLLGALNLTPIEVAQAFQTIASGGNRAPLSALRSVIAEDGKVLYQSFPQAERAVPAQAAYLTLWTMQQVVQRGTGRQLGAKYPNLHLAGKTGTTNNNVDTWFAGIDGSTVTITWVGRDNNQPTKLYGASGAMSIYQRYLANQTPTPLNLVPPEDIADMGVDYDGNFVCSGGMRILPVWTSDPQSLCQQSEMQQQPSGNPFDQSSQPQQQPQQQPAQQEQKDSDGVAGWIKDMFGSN

T2: Escherichia coli YcbB (residue 31 onward), fluorescently labelled with Alexa Fluor 647 (Escherichia coli, UniProt P22525 31-615, Alexa Fluor 647 NHS Ester label (sites not given))
T2 construct: L,D-transpeptidase YcbB (LdtD), E. coli, without its signal peptide (residues 1-30), residue 31 onward; Same construct as m1, labelled for the MST with PBP5; also called fluorescently labelled YcbB; source: E. coli BL21 (DE3), purified (HisTrap Ni2+, SEC Superdex 200), then labelled; not shown: His8, C-terminal, cleaved
T2 sequence: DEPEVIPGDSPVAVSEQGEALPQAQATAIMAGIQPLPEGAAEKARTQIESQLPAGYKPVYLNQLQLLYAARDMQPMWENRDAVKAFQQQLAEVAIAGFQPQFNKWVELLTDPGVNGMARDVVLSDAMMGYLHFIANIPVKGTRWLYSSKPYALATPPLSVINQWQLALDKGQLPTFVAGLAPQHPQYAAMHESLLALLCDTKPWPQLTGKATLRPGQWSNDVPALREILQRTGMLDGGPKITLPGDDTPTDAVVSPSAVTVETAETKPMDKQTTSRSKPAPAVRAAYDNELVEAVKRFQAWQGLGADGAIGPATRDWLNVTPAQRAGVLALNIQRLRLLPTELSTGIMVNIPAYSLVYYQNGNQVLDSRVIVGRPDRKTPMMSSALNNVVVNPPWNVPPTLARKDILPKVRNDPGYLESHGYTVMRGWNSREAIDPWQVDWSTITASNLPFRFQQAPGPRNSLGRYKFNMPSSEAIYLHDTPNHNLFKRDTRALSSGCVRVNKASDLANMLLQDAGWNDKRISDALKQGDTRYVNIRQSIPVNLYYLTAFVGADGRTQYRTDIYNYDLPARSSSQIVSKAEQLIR

B1: Escherichia coli YcbB without its signal peptide (residue 31 onward) (enzyme)
chain: T2 sequence
notes: L,D-transpeptidase YcbB (LdtD), E. coli, without its signal peptide (residues 1-30), residue 31 onward; Unlabelled form: titrant in the MST with PBP1b and the protein that was crystallised (there acylated by meropenem on Cys528); Vector named pET41b-GST; no GST on the protein is spoken of; Thrombin-cleavable tag; the purification paragraph calls the removed tag N-terminal, the cloning paragraph …
B2: Escherichia coli PBP5 from residue 30 onward (enzyme)
chain: DDLNIKTMIPGVPQIDAESYILIDYNSGKVLAEQNADVRRDPASLTKMMTSYVIGQAMKAGKFKETDLVTIGNDAWATGNPVFKGSSLMFLKPGMQVPVSQLIRGINLQSGNDACVAMADFAAGSQDAFVGLMNSYVNALGLKNTHFQTVHGLDADGQYSSARDMALIGQALIRDVPNEYSIYKEKEFTFNGIRQLNRNGLLWDNSLNVDGIKTGHTDKAGYNLVASATEGQMRLISAVMGGRTFKGREAESKKLLTWGFRFFETVNPLKVGKEFASEPVWFGDSDRASLGVDKDVYLTIPRGRMKDLKASYVLNSSELHAPLQKNQVVGTINFQLDGKTIEQRPLVVLQEIPEGNFFGKIIDYIKLMFHHWFG
notes: HRV 3C protease-cleavable tag; the purification paragraph calls the removed tag N-terminal, the cloning paragraph C-terminal; also called D,D-carboxypeptidase PBP5; source: E. coli BL21 (DE3), purified (HisTrap Ni2+, SEC Superdex 200); not shown: His8, C-terminal, cleaved

Columns and labels:
[1] = target: T1, Escherichia coli PBP1b from residue 58 …; assay: MST; Monolith NT.115Pico; unlabelled YcbB (1.5 nM-3.1 uM) titrated into Alexa Fluor 647-labelled SMA-solubilised PBP1b at 100 nM; Buffer C; analysed using fluorescence values; binding isotherm with adjustable Hill coefficient; settings: both partners purified
[2] = target: T2, Escherichia coli YcbB (residue 31 …); assay: MST; Monolith NT.115Pico; unlabelled PBP5 (120 pM-98 uM) titrated into Alexa Fluor 647-labelled YcbB at 15 nM; Buffer C; analysed using MST; binding isotherm with adjustable Hill coefficient; settings: both partners purified

Binder	Kd [1] [nM]	Kd [2] [nM]
B1	250 ± 30	
B2		~2000
